T1: PDGF-C peptide epitope SVSIREELKC (human)
T1 construct: Synthesised with a C-terminal cysteine for thiol immobilisation on the sensor chip
T1 peptide: SVSIREELKC

T2: RTDTIFWPGC
T2 peptide: RTDTIFWPGC

T3: overlapping PDGF-C peptide EELKRTDTIFC (human)
T3 construct: Synthesised with a C-terminal cysteine for thiol immobilisation
T3 peptide: EELKRTDTIFC

T4: corresponding PDGF-D peptide SVNIREELKC (human)
T4 construct: Synthesised with a C-terminal cysteine; also called alternate peptide
T4 peptide: SVNIREELKC

B1: humanized anti-PDGF-CC antibody 6B3 (hu6B3), heavy chain R30 (antibody, V domains shown)
VH: QVQLVQSGAEVKKPGASVKVSCKASGYTFRSYGITWVRQATGQGLEWMGEIYPRSGKTGYAQKFQGRVTMTADTSTSTVYMELRSLRSEDSAVYFCAREGYGYDGGYFDYWGQGTLVTVSS
VL: DIVMTQSPSSLAMSVGERATINCKSSQSLLNSRNQKNYLAWYQQKPGQPPKLLIYFASTRESGVPDRFSGSGSGTDFTLTISSVQAEDVAVYYCQQHYSTPLTFGGGTKVELKR
notes: Human IgG1 kappa as the final form; also called hu6B3 R; hu6B3 R30
B2: monoclonal antibody 12F5 (antibody, mouse IgG2a, V domains shown)
VH: EVKLEESGGGLVQPGGSRELSCEGSGFTFSGFWMSWVRQTPGKTLEWIGDINSDGSAIIYAPSIKDRFTIFRDNDKSTLYLQMNNVRSEDTATYFCMRWGYYGSNYFDYWGQGTTLTVSS
VL: DVVMTQTPLSLPVSLGDQASISCRSSQSIVHSNGNTYLHWYLQKPGQSPKLLIYRVSNRFSGVPDRFSGSGSGTDFTLKISRVEAEDMGVYYCFQGTHVPFTFGSGTKLEIKR
notes: Murine IgG2a, kappa light chain; also called anti-PDGF-CC mAb 12F5
B3: Peptide 3 (SVSIREELKRTDTIFWPGC) (peptide)
peptide: SVSIREELKRTDTIFWPGC
notes: Synthetic peptide; also called PDGFC peptide 3
B4: monoclonal antibody 6B3 (antibody, mouse IgG2a, V domains shown)
VH: QVQLQQSGVEVARPGASVKLSCKASGYTFRSYGITWVRQRTGQGLEWIGEIYPRSGKTYYNEKFKGKATLTADTSSSTVYMELRSLTSEDSAVYFCAREGYGYDGGYFDYWGQGTTLTVSS
VL: DIVMTQSPSSLAMSVGQKVTMSCKSSQSLLNSRNQKNYLAWYQQKPGQSPKLLVYFASTRESGVPDRFTGSGSGTDFTLTISSVQAEDLAVYYCQQHYSTPLTFGAGTKLELKR
notes: The variable domains are identical to those of 19C7; also called mu6B3; murine 6B3
B5: monoclonal antibody 19C7 (antibody, mouse IgG2a, V domains shown)
VH: QVQLQQSGVEVARPGASVKLSCKASGYTFRSYGITWVRQRTGQGLEWIGEIYPRSGKTYYNEKFKGKATLTADTSSSTVYMELRSLTSEDSAVYFCAREGYGYDGGYFDYWGQGTTLTVSS
VL: DIVMTQSPSSLAMSVGQKVTMSCKSSQSLLNSRNQKNYLAWYQQKPGQSPKLLVYFASTRESGVPDRFTGSGSGTDFTLTISSVQAEDLAVYYCQQHYSTPLTFGAGTKLELKR
notes: Murine IgG2a, kappa light chain
B6: monoclonal antibody 11F5 (antibody, mouse IgG2a, V domains shown)
VH: QVQLQQSGAELARPGASVKLSCKASGYIFISYGISWVKQRTGQGLEWIGEIYPRSGKTYYNEKFKDKAALTADKSSSIAYMELRSLTSEDSAVYFCAREGYGYDGGYFDYWGQGTILTVSS
VL: DIVMTQSPSSLAMSVGQKVAVSCKSSQSLLNSSNQKNYLAWYQQKPGQSPKLLVYFASTRDSGVPDRFTGSGSGTDFTLTISSVQAEDLAVYYCQQHYSTPLTFGAGTKLELKR
notes: as for B5
B7: chimeric anti-PDGF-CC antibody 6B3 (ch6B3) (antibody, V domains shown)
VH: QVQLQQSGVEVARPGASVKLSCKASGYTFGSYGITWVRQRTGQGLEWIGEIYPRSGKTYYNEKFKGKATLTADTSSSTVYMELRSLTSEDSAVYFCAREGYGYDGGYFDYWGQGTTLTVSS
VL: DIVMTQSPSSLAMSVGQKVTMSCKSSQSLLNSRNQKNYLAWYQQKPGQSPKLLVYFASTRESGVPDRFTGSGSGTDFTLTISSVQAEDLAVYYCQQHYSTPLTFGAGTKLELKR
notes: also called chimeric 6B3; mouse-human chimeric antibody 6B3

Legend:
[1] = target: T5, recombinant human PDGF-BB (human, UniProt P01127 82-190); assay: ELISA on coated PDGF-AA, -BB, -CC, -DD and BSA
T5 construct: Bought; The construct is not described; also called PB

[2] = target: T6, recombinant human PDGF-AA (human, UniProt P04085 87-211); assay: ELISA on coated PDGF-AA, -BB, -CC, -DD and BSA
T6 construct: Bought; The construct is not described

[3] = target: T7, recombinant human PDGF-CC active core domain protein with terminal histidine tag (human, UniProt Q9NRA1 231-345); assay: ELISA on coated PDGF-AA, -BB, -CC, -DD and BSA
T7 construct: Made in baculovirus-infected Sf9 cells; The position of the tag in the chain is not known; also called RhPC; RhPCc; not shown: terminal histidine tag

[4] = target: T8, recombinant human PDGF-DD (human, UniProt Q9GZP0 250-370, limits assumed); assay: ELISA on coated PDGF-AA, -BB, -CC, -DD and BSA
T8 construct: The construct is not described; also called PDGF-D polypeptide; PDGF-DD (R&D)

[5] = target: T5, recombinant human PDGF-BB; assay: ELISA, PDGF ligands coated at 1 µg/ml, purified mAb at 1.5 µg/ml
Protocol: (§1) Following immunisation of mice and splenic fusions by standard procedures, the supernatant of 16 hybridomas were initially assessed for PDGF-CC binding specificity by ELISA and Western analysis. A sensitive ELISA assay was employed to explore this using commercially available PDGF-AA, PDGF-BB, PDGF-DD and recombinant PDGF-CC. Specifically, antigen immobilization of purified recombinant human PDGF ligands, PDGF-AA, BB, CC and DD diluted in 100 mM NaHCO₃ at the concentration of 1μg/ml, was performed overnight at +4° C. Thereafter, all incubations were done at room temperature 1.5-2 hours and washes carried out with PBS. In triplicate, hybridoma supernatants were applied at a dilution of 1:2 in PBS/1% bovine serum albumin (BSA), or purified monoclonal antibody (mAbs) was added (1.5μg/ml in 3% BSA). A rabbit polyclonal IgG—purified antibody was used as positive control (4 μg/ml). Binding was detected with an anti—mouse (or anti—rabbit in control) alkaline phosphatase—conjugated secondary antibody and visualized by incubation with alkaline phosphatase yellow (pNPP) liquid substrate system for ELISA (Sigma—Aldrich). Absorbance was read at 405 nm.

[6] = target: T6, recombinant human PDGF-AA; assay: as above
Protocol: as §1

[7] = target: T8, recombinant human PDGF-DD; assay: as above
Protocol: as §1

[8] = target: T7, recombinant human PDGF-CC active core …; assay: SPR, BIAcore 2000, His-tagged PDGF-CC on Ni-NTA chip, antibody as analyte, 1:1 Langmuir fit (apparent)
Protocol: Biosensor analyses were performed on a BIAcore 2000 biosensor using an NTA sensor chip. Briefly, a NTA sensor chip was loaded with Ni 2+ and used to immobilize histidine tagged PDGF-CC ligand. The PDGF-CC antibodies were passed over the chip at varying concentrations in order to determine apparent affinity (KD). Chips were regenerated with EGTA. The chip was re-equilibrated by washing with HBS (containing no EDTA) before further analyses. Using BIAevaluation software, a 1:1 Langmuir binding analysis model was used to estimate the apparent association (ka) and disassociation (kd) rate constants for each set of antibody experiments.

monoclonal antibody 6B3 = target: B4; assay: Biacore competition: 6B3 (333 nM) with soluble peptide injected over immobilised PDGF-CC core protein, maximum response plotted
Protocol: Biosensor analyses were performed on a BlAcore 2000 biosensor using a carboxymethyldextran-coated sensor chip (Xantec CMD). The chip was derivatised on channel 2 with the PDGF-CC core antigen (60 μg/mL) using standard amine coupling chemistry (0.05M NHS/0.2M EDC). Channel 1 was derivatised with ethanolamine and used as a blank control channel for correction of refractive index effects.
After the injection phase, the dissociation was monitored by flowing HBS buffer over the chip surface for 360s. Bound antibody was eluted and the chip surface regenerated between samples by injection of 30 μl of 10 mM Glycine pH 2.0

[9] = target: B3; assay: SPR, 6B3 (20.8 nM-667 nM) over thiol-immobilised peptide 3
Protocol: Peptide 3 was immobilized on channel 4 of the carboxymethyldextran-coated sensor chip using thiol chemistry. Briefly, the chip was activated on channel 4 using standard amine coupling chemistry (0.05M NHS/0.2M EDC) followed by 80 mM (2-(2-pyridinyldithio)ethane amine (PDEA) in 1M borate PH 8.2. Peptide 3 (100 nM in 10 mM sodium acetate pH 4.5) was conjugated via its C-terminal cysteine to PDEA. The chip was then blocked using 40 mM L-cysteine in 10 mM sodium acetate pH 4.0 and 1 M ethanolamine pH 8.2. A blank derivatised channel was used as the control channel.
Samples of antibody 6B3 (20.8 nM-667 nM) were injected (30 μL at 10 μL/min) in HBS buffer over immobilized peptide 3. Specific binding was observed as compared to the blank channel and then investigated further with smaller overlapping peptide sequences (data not shown).

[10] = target: T1, PDGF-C peptide epitope SVSIREELKC; assay: Biacore, 6B3 at 20.8 nM-667 nM over thiol-immobilised peptide
RTDTIFWPGC = target: T2, RTDTIFWPGC; assay: as above
[11] = target: T3, overlapping PDGF-C peptide EELKRTDTIFC; assay: as above
[12] = target: T4, corresponding PDGF-D peptide SVNIREELKC; assay: Biacore, 6B3 over thiol-immobilised peptide
Protocol: Samples of 6B3 antibody (1.334 μM) was injected (30 μL at 10 μL/min) in HBS buffer over the immobilized peptides.

[13] = target: T9, mouse PDGF-C core protein (mouse, UniProt Q8CI19 231-345, limits assumed); assay: immunoblot of COS-1 supernatant with mouse PDGF-C core, probed with purified antibody
T9 construct: also called COSmPCcoremedia
Protocol: To produce the mouse PDGF-CC protein, COS-1 cells were transfected with mouse PDGF-C core plasmid constructed in expression vector pCDNA3.1 (Invitrogen). Transfection using lipofectamine plus reagent (Invitrogen) was performed according to the manufacturer's instructions. Transfected cells were cultured in serum free media. At 24 hours post-transfection, culture supernatant (COSmPCcoremedia) was collected and 30 μl sample was loaded on SDS-PAGE together with human PDGF-C core protein (0.1 μg RhPcc) and proteins separated by SDS-PAGE. Protein was then isolated using standard means.

[14] = target: T8, recombinant human PDGF-DD; assay: immunoblot of recombinant PDGF-D after SDS-PAGE, probed with hybridoma supernatant, exposure 10 seconds

T7 sequence (Q9NRA1 231-345 limits assumed): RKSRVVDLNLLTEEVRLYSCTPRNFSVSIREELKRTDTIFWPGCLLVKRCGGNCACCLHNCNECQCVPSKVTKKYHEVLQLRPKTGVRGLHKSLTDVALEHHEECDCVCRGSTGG
T5 sequence (P01127 82-190): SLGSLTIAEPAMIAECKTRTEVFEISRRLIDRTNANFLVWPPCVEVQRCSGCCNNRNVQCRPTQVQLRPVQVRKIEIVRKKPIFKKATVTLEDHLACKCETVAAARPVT
T8 sequence (Q9GZP0 250-370 limits assumed): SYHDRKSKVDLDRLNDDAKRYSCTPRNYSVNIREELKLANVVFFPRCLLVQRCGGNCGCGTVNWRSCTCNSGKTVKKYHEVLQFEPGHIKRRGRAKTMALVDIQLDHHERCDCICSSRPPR
T9 sequence (Q8CI19 231-345 limits assumed): as the sequence (Q9NRA1 231-345 limits assumed) above, with R1K, R4K, D7N, T12K, R16K, S69R, R88K, S112N, T113A counted along it

| Binder | binding result [5] | binding result [6] | binding result [7] | Kd [8] [pM] | koff [8] [s⁻¹] | kon [8] [M⁻¹ s⁻¹] | further results |
| --- | --- | --- | --- | --- | --- | --- | --- |
| B1 |  |  |  |  |  |  | binding result [1]: no binding; binding result [2]: no binding; binding result [3]: binds; binding result [4]: no binding |
| B2 | no binding (tested: 1.5 µg/ml) | no binding (tested: 1.5 µg/ml) | no binding (tested: 1.5 µg/ml) | 2200 | 0.0002 | 90000 |  |
| B3 |  |  |  |  |  |  | binding result (monoclonal antibody 6B3): binds |
| B4 | no binding (tested: 1.5 µg/ml) | no binding (tested: 1.5 µg/ml) | no binding (tested: 1.5 µg/ml) | 900 | 0.0015 | 1.8e+06 | binding result [9]: binds; binding result [10]: binds; binding result (RTDTIFWPGC): binds; binding result [11]: no binding (tested: 667 nM); binding result [12]: no binding (tested: 1.334 µM (legend; paragraph 184 says 667 nM)); binding result [13]: no binding |
| B5 | no binding (tested: 1.5 µg/ml) | no binding (tested: 1.5 µg/ml) | no binding (tested: 1.5 µg/ml) | 700 | 0.0016 | 2.2e+06 |  |
| B6 | no binding (tested: 1.5 µg/ml) | no binding (tested: 1.5 µg/ml) |  | 1050 | 0.00058 | 640000 | binding result [14]: no binding |
| B7 |  |  |  | 700 | 0.00041 | 600000 | binding result [1]: no binding; binding result [2]: no binding; binding result [4]: no binding |
